In PMC9723649:

How the values were obtained:
[1] = substrate: N[C@@H](CO)C(=O)O; assay: purified protein
[2] = substrate: Nc1ncnc2c1ncn2[C@@H]1O[C@H](COP(=O)(O)OP(=O)(O)OP(=O)(O)O)[C@@H](O)[C@H]1O; assay: purified protein

B1: SARS2 (human mitochondrial seryl-tRNA synthetase, mature form) (Homo sapiens; INS217NLSP/K218R) (protein)
chain: TTEKRNRNLLYEYAREGYSALPQLDIERFCACPEEAAHALELRKGELRSADLPAIISTWQELRQLQEQIRSLEEEKAAVTEAVRALLANQDSGEVQQDPKYQGLRARGREIRKELVHLYPREAQLEEQFYLQALKLPNQTHPDVPVGDESQARVLHMVGDKPVFSFQPRGHLEIGEKLDIIRQNLSPRRLSHVSGHRSYYLRGAGALLQHGLVNFTFNKLLRRGFTPMTVPDLLRGAVFEGCGMTPNANPSQIYNIDPARFKDLNLAGTAEVGLAGYFMDHTVAFRDLPVRMVCSSTCYRAETNTGQEPRGLYRVHHFTKVEMFGVTGPGLEQSSQLLEEFLSLQMEILTELGLHFRVLDMPTQELGLPAYRKFDIEAWMPGRGRFGEVTSASNCTDFQSRRLHIMFQTEAGELQFAHTVNATACAVPRLLIALLESNQQKDGSVLVPPALQSYLGTDRITAPTHVPLQYIGPNQPRKPGLPGQPAVS
Km [1]: 1660 ± 30 µM
Km [2]: 64.69 ± 4.48 µM
